The target of data set [1] is Cp(−10)149.G123A (Hepatitis B virus) (UniProt P03147). The data set can be described thus: AUC.
Data set [2] concerns the target Cp(−10)149d.C(−7)A.C61.C48A.C107A (Hepatitis B virus) (UniProt P03147). In words: AUC.
For data set [3] the target is unchanged. In words: cross-linking.
In data set [4] the target is Cp149.S141A (Hepatitis B virus) (UniProt P03147). In words: AUC.
Data set [5] concerns the target Cp149.R127A.G123A (Hepatitis B virus) (UniProt P03147). The data set can be described thus: AUC.
The target of data set [6] is Cp149.R127A (Hepatitis B virus) (UniProt P03147). The data set can be described thus: AUC.
The target of data set [7] is Cp149.Y132A.G123A.R127A (Hepatitis B virus) (UniProt P03147). The data set can be described thus: AUC.
For data set [8], the target named is Cp149.G123A.T114A (Hepatitis B virus) (UniProt P03147). In words: AUC.
Data set [9] has as its target Cp149.G123A (Hepatitis B virus) (UniProt P03147). The data set can be described thus: AUC.
Data set [10] has the same target. In words: SEC.
Data set [11] concerns the target Cp149.Y132A (Hepatitis B virus) (UniProt P03147). In words: AUC.
Data set [12] concerns the target Cp(−10)149.5A (Hepatitis B virus) (UniProt P03147). In words: cross-linking.
Data set [13] has as its target Cp149.T114A (Hepatitis B virus) (UniProt P03147). In words: AUC.
The data set “AUC” concerns the molecule itself. The data set can be described thus: AUC.
The data set “cross-linking” deals with the molecule itself. The data set can be described thus: cross-linking.

Turning to “Cp(−10)149.G123A (from UniProt P03147 1-149) (natural protein)”, the stoichiometry N in data set [1] is 2.
Turning to “Cp(−10)149d.C(−7)A.C61.C48A.C107A (from UniProt P03147 1-149) (natural protein)”, the stoichiometry N in data set [2] and in data set [3] was 2 throughout.
Molecule “Cp149.S141A (from UniProt P03147 1-149) (domain or fragment)” yielded a stoichiometry N in [4] of 2.
In turn, “Cp149.R127A.G123A (from UniProt P03147 1-149) (domain or fragment)” came in with a stoichiometry N in [5] of 2.
“Cp149.R127A (from UniProt P03147 1-149) (domain or fragment)”: the stoichiometry N in data set [6] worked out at 2.
Turning to “Cp149.Y132A.G123A.R127A (from UniProt P03147 1-149) (domain or fragment)”, the stoichiometry N in data set [7] turned out to be 2.
As to “Cp149.G123A.T114A (from UniProt P03147 1-149) (domain or fragment)”, in data set [8], the stoichiometry N is 2.
As to “Cp149.G123A (from UniProt P03147 1-149) (domain or fragment)”, the stoichiometry N in data set [9] and in [10] was 2 each time.
For “Cp149.Y132A (from UniProt P03147 1-149) (domain or fragment)”, the stoichiometry N in data set [11] amounted to 2.
In [12], “Cp(−10)149.5A (from UniProt P03147 1-149) (natural protein)” had a stoichiometry N of 2.
The molecule “Cp149.T114A (from UniProt P03147 1-149) (domain or fragment)” returned a stoichiometry N in data set [13] of 2.

B1: Cp143 (domain or fragment)
chain: MDIDPYKEFGATVELLSFLPSDFFPSVRDLLDTAAALYRDALESPEHCSPHHTALRQAILCWGDLMTLATWVGTNLEDPASRDLVVSYVNTNVGLKFRQLLWFHISCLTFGRETVLEYLVSFGVWIRTPPAYRPPNAPILSTL
Regarding B1, the “stoichiometry N” value in the data set “AUC” is 2.

B2: Cp149.4A (domain or fragment)
chain: MDIDPYKEFGATVELLSFLPSDFFPSVRDLLDTAAALYRDALESPEHASPHHTALRQAILCWGDLMTLATWVGTNLEDPASRDLVVSYVNTNVGLKFRQLLWFHISALTFGRETVLEYLVSFAVWIATPPAYRPPNAPILSTLPETTVV
Consider B2, for which, in the data set “cross-linking”, the “stoichiometry N” value was found to be 2.

B3: Cp141 (domain or fragment)
chain: MDIDPYKEFGATVELLSFLPSDFFPSVRDLLDTAAALYRDALESPEHCSPHHTALRQAILCWGDLMTLATWVGTNLEDPASRDLVVSYVNTNVGLKFRQLLWFHISCLTFGRETVLEYLVSFGVWIRTPPAYRPPNAPILS
As for B3, in “AUC”, the “stoichiometry N” value was found to be 2.

In general, stoichiometry N refers to a count of units in the complex or per binding partner.

The values are drawn from PMC3095675 (Journal of molecular biology, 2011).
